In patent publication EP4782541A1 (Nanjing Probio Biotech Co., Ltd., dated 2026):

Molecular target: T1, human CD3 (on Jurkat cells) (human, UniProt P07766 23-207; P09693 23-182; P04234 22-171)
T1 construct: whole, on cells
Experiment: flow cytometry on Jurkat cells expressing human CD3

T1 sequence (P07766 23-207, chain 1 of 3): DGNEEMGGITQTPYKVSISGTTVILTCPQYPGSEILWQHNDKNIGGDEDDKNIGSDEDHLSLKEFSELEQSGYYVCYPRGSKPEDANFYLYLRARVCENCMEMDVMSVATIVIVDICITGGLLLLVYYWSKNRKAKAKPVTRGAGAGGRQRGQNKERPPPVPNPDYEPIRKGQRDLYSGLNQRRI
T1 sequence (P09693 23-182, chain 2 of 3): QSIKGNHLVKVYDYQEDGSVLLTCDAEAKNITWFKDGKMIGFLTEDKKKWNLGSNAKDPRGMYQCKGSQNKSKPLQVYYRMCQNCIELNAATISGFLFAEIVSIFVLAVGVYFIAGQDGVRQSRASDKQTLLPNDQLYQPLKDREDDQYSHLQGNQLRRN
T1 sequence (P04234 22-171, chain 3 of 3): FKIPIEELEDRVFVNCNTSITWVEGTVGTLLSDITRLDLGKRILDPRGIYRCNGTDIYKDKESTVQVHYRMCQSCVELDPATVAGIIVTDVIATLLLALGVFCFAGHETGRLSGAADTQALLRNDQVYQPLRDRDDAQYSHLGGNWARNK

| Binder | EC50 [nM] |
| --- | --- |
| BsAb-17 (bispecific antibody, human IgG1, lambda) EVQLVESGGGLVQPGGSLRLSCAASGRSFSSFQMGWFRQAPGKEREFVAASGWSGGPTYYWDSVIGRFTISTDNSKNTLYLQMNSLRAEDTAVYYCYEDRVLSGRHVRYWGQGTLVTVSSDKTHTCPPCPAPESTRGPSVFLFPPKPKDTLMISRTPEVTCVVVDVSHEDPEVKFNWYVDGVEVHNAKTKPREEQYNSTYRVVSVLTVLHQDWLNGKEYKCKVSNKALPAPIEKTISKAKGQPREPQVCTLPPSRDELTKNQVSLSCAVKGFYPSDIAVEWESNGQPENNYKTTPPVLDSDGSFFLVSKLTVDKSRWQQGNVFSCSVMHEALHNHYTQKSLSLSPGK heavy: EVQLVESGGGLVQPGGSLRLSCAASGRSFSSFQMGWFRQAPGKEREFVAASGWSGGPTYYWDSVIGRFTISTDNSKNTLYLQMNSLRAEDTAVYYCYEDRVLSGRHVRYWGQGTLVTVSSGGGGSGGGGSGGGGSEVQLVESGGGLVQPGRSLRLSCAASGFTFNTYAMNWVRQAPGKGLEWVARIRSKYNNYATYYADSVKDRFTISRDDSKSIAYLQMNSLKTEDTAVYYCVRHGNFGNSYVSWFAYWGQGTLVTVSSASTKGPSVFPLAPSSKSTSGGTAALGCLVKDYFPEPVTVSWNSGALTSGVHTFPAVLQSSGLYSLSSVVTVPSSSLGTQTYICNVNHKPSNTKVDKKVEPKSCDKTHTCPPCPAPESTRGPSVFLFPPKPKDTLMISRTPEVTCVVVDVSHEDPEVKFNWYVDGVEVHNAKTKPREEQYNSTYRVVSVLTVLHQDWLNGKEYKCKVSNKALPAPIEKTISKAKGQPREPQVYTLPPCRDELTKNQVSLWCLVKGFYPSDIAVEWESNGQPENNYKTTPPVLDSDGSFFLYSKLTVDKSRWQQGNVFSCSVMHEALHNHYTQKSLSLSPGK light: QTVVTQEPSLTVSPGGTVTLTCRSSTGAVTTSNYANWVQQKPGQAPRGLIGGTNKRAPGVPARFSGSLLGGKAALTLSGVQPEDEAEYFCALWYSNLWVFGGGTKLTVLGQPKAAPSVTLFPPSSEELQANKATLVCLISDFYPGAVTVAWKADSSPVKAGVETTTPSKQSNNKYAASSYLSLTPEQWKSHRSYSCQVTHEGSTVEKTVAPTECS | 4.02 |
| BsAb-3 (bispecific antibody, human IgG1, lambda, also called BsAb-03) QVQLVESGGGVVQPGGSLRLSCAASGFVLRVNTVSWYRQAPGKQRELVALITSESNEYYDDSVKGRFTISRDNAKNTIYLHMNSLKPEDTGVYFCNFITTWGQGTQVTVSSDKTHTCPPCPAPESTRGPSVFLFPPKPKDTLMISRTPEVTCVVVDVSHEDPEVKFNWYVDGVEVHNAKTKPREEQYNSTYRVVSVLTVLHQDWLNGKEYKCKVSNKALPAPIEKTISKAKGQPREPQVCTLPPSRDELTKNQVSLSCAVKGFYPSDIAVEWESNGQPENNYKTTPPVLDSDGSFFLVSKLTVDKSRWQQGNVFSCSVMHEALHNHYTQKSLSLSPGK heavy: EVQLVESGGGLVQPGRSLRLSCAASGFTFNTYAMNWVRQAPGKGLEWVARIRSKYNNYATYYADSVKDRFTISRDDSKSIAYLQMNSLKTEDTAVYYCVRHGNFGNSYVSWFAYWGQGTLVTVSSASTKGPSVFPLAPSSKSTSGGTAALGCLVKDYFPEPVTVSWNSGALTSGVHTFPAVLQSSGLYSLSSVVTVPSSSLGTQTYICNVNHKPSNTKVDKKVEPKSCDKTHTCPPCPAPESTRGPSVFLFPPKPKDTLMISRTPEVTCVVVDVSHEDPEVKFNWYVDGVEVHNAKTKPREEQYNSTYRVVSVLTVLHQDWLNGKEYKCKVSNKALPAPIEKTISKAKGQPREPQVYTLPPCRDELTKNQVSLWCLVKGFYPSDIAVEWESNGQPENNYKTTPPVLDSDGSFFLYSKLTVDKSRWQQGNVFSCSVMHEALHNHYTQKSLSLSPGK light: QTVVTQEPSLTVSPGGTVTLTCRSSTGAVTTSNYANWVQQKPGQAPRGLIGGTNKRAPGVPARFSGSLLGGKAALTLSGVQPEDEAEYFCALWYSNLWVFGGGTKLTVLGQPKAAPSVTLFPPSSEELQANKATLVCLISDFYPGAVTVAWKADSSPVKAGVETTTPSKQSNNKYAASSYLSLTPEQWKSHRSYSCQVTHEGSTVEKTVAPTECS | 6.66 |
| BsAb-10 (bispecific antibody, human IgG1, lambda) EVQLVESGGGLVQPGGSLRLSCAASYFISRFYAVGWYRQAPGKQRELVARISSGGWTYYADSVKGRFTISIDNSKNTLYLQMNSLRAEDTAVYYCNARNLWGQGTLVTVSSDKTHTCPPCPAPESTRGPSVFLFPPKPKDTLMISRTPEVTCVVVDVSHEDPEVKFNWYVDGVEVHNAKTKPREEQYNSTYRVVSVLTVLHQDWLNGKEYKCKVSNKALPAPIEKTISKAKGQPREPQVCTLPPSRDELTKNQVSLSCAVKGFYPSDIAVEWESNGQPENNYKTTPPVLDSDGSFFLVSKLTVDKSRWQQGNVFSCSVMHEALHNHYTQKSLSLSPGK heavy: EVQLVESGGGLVQPGGSLRLSCAASYFISRFYAVGWYRQAPGKQRELVARISSGGWTYYADSVKGRFTISIDNSKNTLYLQMNSLRAEDTAVYYCNARNLWGQGTLVTVSSGGGGSGGGGSGGGGSEVQLVESGGGLVQPGRSLRLSCAASGFTFNTYAMNWVRQAPGKGLEWVARIRSKYNNYATYYADSVKDRFTISRDDSKSIAYLQMNSLKTEDTAVYYCVRHGNFGNSYVSWFAYWGQGTLVTVSSASTKGPSVFPLAPSSKSTSGGTAALGCLVKDYFPEPVTVSWNSGALTSGVHTFPAVLQSSGLYSLSSVVTVPSSSLGTQTYICNVNHKPSNTKVDKKVEPKSCDKTHTCPPCPAPESTRGPSVFLFPPKPKDTLMISRTPEVTCVVVDVSHEDPEVKFNWYVDGVEVHNAKTKPREEQYNSTYRVVSVLTVLHQDWLNGKEYKCKVSNKALPAPIEKTISKAKGQPREPQVYTLPPCRDELTKNQVSLWCLVKGFYPSDIAVEWESNGQPENNYKTTPPVLDSDGSFFLYSKLTVDKSRWQQGNVFSCSVMHEALHNHYTQKSLSLSPGK light: QTVVTQEPSLTVSPGGTVTLTCRSSTGAVTTSNYANWVQQKPGQAPRGLIGGTNKRAPGVPARFSGSLLGGKAALTLSGVQPEDEAEYFCALWYSNLWVFGGGTKLTVLGQPKAAPSVTLFPPSSEELQANKATLVCLISDFYPGAVTVAWKADSSPVKAGVETTTPSKQSNNKYAASSYLSLTPEQWKSHRSYSCQVTHEGSTVEKTVAPTECS | 2.84 |
| BsAb-2 (bispecific antibody, human IgG1, lambda, also called BsAb-02) EVQLVESGGGLVQPGGSLRLSCAASYFISRFYAVGWYRQAPGKQRELVARISSGGWTYYADSVKGRFTISIDNSKNTLYLQMNSLRAEDTAVYYCNARNLWGQGTLVTVSSDKTHTCPPCPAPESTRGPSVFLFPPKPKDTLMISRTPEVTCVVVDVSHEDPEVKFNWYVDGVEVHNAKTKPREEQYNSTYRVVSVLTVLHQDWLNGKEYKCKVSNKALPAPIEKTISKAKGQPREPQVCTLPPSRDELTKNQVSLSCAVKGFYPSDIAVEWESNGQPENNYKTTPPVLDSDGSFFLVSKLTVDKSRWQQGNVFSCSVMHEALHNHYTQKSLSLSPGK heavy: EVQLVESGGGLVQPGRSLRLSCAASGFTFNTYAMNWVRQAPGKGLEWVARIRSKYNNYATYYADSVKDRFTISRDDSKSIAYLQMNSLKTEDTAVYYCVRHGNFGNSYVSWFAYWGQGTLVTVSSASTKGPSVFPLAPSSKSTSGGTAALGCLVKDYFPEPVTVSWNSGALTSGVHTFPAVLQSSGLYSLSSVVTVPSSSLGTQTYICNVNHKPSNTKVDKKVEPKSCDKTHTCPPCPAPESTRGPSVFLFPPKPKDTLMISRTPEVTCVVVDVSHEDPEVKFNWYVDGVEVHNAKTKPREEQYNSTYRVVSVLTVLHQDWLNGKEYKCKVSNKALPAPIEKTISKAKGQPREPQVYTLPPCRDELTKNQVSLWCLVKGFYPSDIAVEWESNGQPENNYKTTPPVLDSDGSFFLYSKLTVDKSRWQQGNVFSCSVMHEALHNHYTQKSLSLSPGK light: QTVVTQEPSLTVSPGGTVTLTCRSSTGAVTTSNYANWVQQKPGQAPRGLIGGTNKRAPGVPARFSGSLLGGKAALTLSGVQPEDEAEYFCALWYSNLWVFGGGTKLTVLGQPKAAPSVTLFPPSSEELQANKATLVCLISDFYPGAVTVAWKADSSPVKAGVETTTPSKQSNNKYAASSYLSLTPEQWKSHRSYSCQVTHEGSTVEKTVAPTECS | 0.329 |
